Experimental data from US20240132622A1 (Bristol-Myers Squibb, published 2024).
Substitutions are numbered along the chain they refer to. In names and notes the source's numbering stands.

B1: hz13-1 (antibody, V domains shown)
VH: EVQLVQSGAEVKKPGASVKVSCTSSDFNIKDHFIHWVRQAPGKGLEWMGRIDPEDDETKYAPKFQDRVTMTADTSTDTAYMELSSLRSEDTAVYYCAGYGNYEGAMDYWGQGTLVTVSS
VL: DIQMTQSPSSLSASVGDRVTITCRASENVNNYGIGFMNWYQQKPGKAPKLLIYAASRRGSGVPSRFSGSGSGTDFTLTISSLQPEDFATYYCQQSKEVPYTFGQGTKVEIK
notes: light constant region not tied to this antibody
B2: hz13-12 (antibody, IgG1, V domains shown)
VH: B1 VH with S17T, V20I, R38Q, M70I, L114T
VL: DVVMTQSPLSLPVTLGQPASISCRASENVNNYGIGFMNWFQQRPGQSPRLLIYAASRRGSGVPDRFSGSGSGTDFTLKISRVEEEDVGVYYCQQSKEVPYTFGGGTKVEIK
notes: also called clone 13-based hz13-12 antibody
B3: hz13-10 (antibody, V domains shown)
VH: B1 VH with S17T, V20I, T23K, S24V, R38Q, M70I, L114T
VL: B2 VL
notes: as for B1
B4: hz13-11 (antibody, V domains shown)
VH: B1 VH with S17T, V20I, R38Q, M70I, L114T
VL: B2 VL with L50R, E84A
notes: as for B1
B5: hz20-7 (antibody, IgG1, V domains shown)
VH: QVQLVQSGAEVKKPGASVKVSCKASGYTFTNYGISWVRQAPGQGLEWMGEIYPRSGNTYHNEKFKDRVTMTTDTSTSTAYMELRSLRSDDTAVYYCARSMITTRYWYFDVWGKGTTVTVSS
VL: DIVMTQSPDSLAVSLGERATINCRASESVDTYGNSFMHWYQQKPGQPPKLLIYLASNLESGVPDRFSGSGSGTDFTLTISSLQAEDVAVYYCQQNNEDPLTFGQGTKLEIK
notes: also called clone 20-based hz20-7 antibody
B6: hz20-3 (antibody, V domains shown)
VH: B5 VH with Q1E, T72A, T74K, Y95F, K113Q, T116L
VL: DIQMTQSPSSLSASVGDRVTITCRASESVDTYGNSFMHWYQQKPGKAPKLLIYLASNLESGVPSRFSGSGSGTDFTLTISSLQPEDFATYYCQQNNEDPLTFGQGTKVEIK
notes: as for B1
B7: hz20-6 (antibody, V domains shown)
VH: QVQLVQSGAEVKKPGASVKLSCKATGYTFTNYGISWVRQAPGQGLEWIGEIYPRSGNTYHNEKFKDRVTLTADKSSSTAYMEFRSLRSDDTAVYFCARSMITTRYWYFDVWGQGTLVTVSS
VL: B6 VL
notes: as for B1
B8: hz20-5 (antibody, V domains shown)
VH: B5 VH with A40R, M48I, T72A, A79V, R84S, D89E
VL: B5 VL with Q104A, I110L
notes: as for B1
B9: hz20-10 (antibody, V domains shown)
VH: B5 VH with T74K
VL: B5 VL with S80D
notes: as for B1
B10: hz20-2 (antibody, IgG1, V domains shown)
VH: B5 VH with K113Q, T116L
VL: B6 VL
notes: also called clone 20-based hz20-2 antibody
B11: hz20-14 (antibody, V domains shown)
VH: B5 VH with A40R, T74K, D89E
VL: B5 VL with S80D
notes: as for B1
B12: hz20-8 (antibody, V domains shown)
VH: B5 VH
VL: B5 VL with S80D
notes: as for B1
B13: hz20-9 (antibody, V domains shown)
VH: B5 VH with T74K
VL: B5 VL
notes: as for B1
B14: hz20-4 (antibody, V domains shown)
VH: B5 VH with T72A, A79V, R84S, D89E
VL: B5 VL with Q104A, I110L
notes: as for B1
B15: hz20-12 (antibody, V domains shown)
VH: B5 VH with K12A, A40R, D89E
VL: B5 VL with S80D
notes: as for B1
B16: hz20-13 (antibody, V domains shown)
VH: B5 VH with A40R, T74K, D89E
VL: B5 VL
notes: as for B1
B17: hz20-11 (antibody, V domains shown)
VH: B5 VH with K12A, A40R, D89E
VL: B5 VL
notes: as for B1
B18: hz13-12 D31E (antibody, human IgG1, kappa, V domains shown)
VH: B1 VH with S17T, V20I, D31E, R38Q, M70I, L114T
VL: DVVMTQSPLSLPVTLGQPASISCRASENVNNYGIGFMNWFQQRPGQSPRLLIYAASRRGSGVPDRFSGSGSGTDFTLKISRVEEEDVGVYYCQQSKEVPYTFGGGTKVEIKR
notes: IgG1.3f; also called hz3-12 D31E

The binders below were run against T1, recombinant human PAD4 (human, UniProt Q9UM07 1-663) (assay: cell-based or functional assay).
T1 sequence (Q9UM07 whole entry): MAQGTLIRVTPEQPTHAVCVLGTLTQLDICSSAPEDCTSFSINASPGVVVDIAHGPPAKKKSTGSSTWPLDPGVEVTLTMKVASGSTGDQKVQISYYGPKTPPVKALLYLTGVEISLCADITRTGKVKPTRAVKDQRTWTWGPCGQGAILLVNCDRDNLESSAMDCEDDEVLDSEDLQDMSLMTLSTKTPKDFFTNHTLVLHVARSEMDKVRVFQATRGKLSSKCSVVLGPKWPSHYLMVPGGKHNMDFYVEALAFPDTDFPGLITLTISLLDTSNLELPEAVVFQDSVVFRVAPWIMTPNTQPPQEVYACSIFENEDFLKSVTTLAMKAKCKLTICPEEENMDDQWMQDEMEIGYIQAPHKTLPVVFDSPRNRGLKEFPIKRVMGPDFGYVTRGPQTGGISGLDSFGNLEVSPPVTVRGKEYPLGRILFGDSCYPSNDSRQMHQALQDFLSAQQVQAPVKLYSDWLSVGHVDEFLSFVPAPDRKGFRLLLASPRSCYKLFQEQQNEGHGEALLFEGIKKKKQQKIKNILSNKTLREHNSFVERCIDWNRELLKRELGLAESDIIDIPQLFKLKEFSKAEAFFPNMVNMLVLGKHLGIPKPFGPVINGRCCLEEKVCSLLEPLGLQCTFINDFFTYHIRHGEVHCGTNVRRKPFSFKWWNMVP

Binder | IC50 (average), PAD4 citrullination of peptide …, RapidFire MS
B1 | 125000 pM
B2 | 42400 pM
B3 | 55800 pM
B4 | 88700 pM
B5 | 64700 pM
B6 | 58000 pM
B7 | 64000 pM
B8 | 56500 pM
B9 | 57400 pM
B10 | 73000 pM
B11 | 56900 pM
B12 | 71900 pM
B13 | 107000 pM
B14 | 118000 pM
B15 | 59000 pM
B16 | 52600 pM
B17 | 65700 pM

What follows are binders tested against T1, recombinant human PAD4 (assay: SPR 37 C, captured antibody, PAD4 analyte, 2 mM EDTA).
Description: (§1) For SPR measurements, either an anti-human capture surface or Protein A surface (Cytiva catalog #29127555) was used. Anti-human capture surface was prepared by immobilizing anti-human capture antibody (Cytiva catalog #29234600) onto flow cells of a CM5 or CM4 biosensor following the manufacturer's amine coupling protocol (Cytiva catalog #BR-1006-33). SPR experiments were conducted at 37° C. using HBS-P (150 mM NaCl, 10 mM HEPES, pH 7.6, 0.05% Tween-20) (TEKNOVA catalog #H8032) with additional 150 mM NaCl and 1 mM or 2 mM CaCl₂) (see Table 2) or 2 mM EDTA (see Table 3) as running buffer. Antibodies were diluted to 1.5 μg/mL in the running buffer, and were captured across active biosensor flow cells at 10 μL/min for 15 to 30 seconds. […] The association and dissociation of the antibodies with PAD4 were measured. One 30 second injection followed by one 15 second injection of 10 mM glycine pH 1.5 was used to regenerate the Protein A capture surface between assay cycles. For anti-human capture surface, two 30 second injections of 3 M MgCl₂ was used for regeneration. SPR measurements for mAb20 and mAb 13 SPR were done in the presence of 2 mM CaCl₂). The remaining antibodies were tested in the presence of 1 mM CaCl₂).
(§2) Rate constants kₒₙ and koff were derived from reference flow cell- and 0 nM blank-subtracted sensorgrams, and were fit to a 1:1 binding model in Biacore® Insight Evaluation software version 3.0.12.15655. Deviations from 1:1 binding model were observed, which may be caused by increased dimerization of PAD4 at higher concentrations. The equilibrium dissociation constant, KD, was calculated as the ratio of rate constants koff/kₒₙ for each PAD4 antibody. For those antibodies that were tested in multiple SPR experiments, the average value and standard deviation from two or three separate experiments are listed in Tables 2 and 3.

Binder | Kd | koff | kon
B1 | 300 pM | 0.0004 s⁻¹ | 1.3e+06 M⁻¹ s⁻¹
B5 | 500 pM | 0.00021 s⁻¹ | 380000 M⁻¹ s⁻¹
B6 | 900 pM | 0.00031 s⁻¹ | 340000 M⁻¹ s⁻¹
B7 | 1200 pM | 0.00037 s⁻¹ | 300000 M⁻¹ s⁻¹
B8 | 1700 pM | 0.0004 s⁻¹ | 240000 M⁻¹ s⁻¹
B9 | 400 pM | 0.00018 s⁻¹ | 480000 M⁻¹ s⁻¹
B10 | 1000 pM | 0.00032 s⁻¹ | 310000 M⁻¹ s⁻¹
B11 | 400 pM | 0.00018 s⁻¹ | 450000 M⁻¹ s⁻¹
B12 | 600 pM | 0.00022 s⁻¹ | 360000 M⁻¹ s⁻¹
B13 | 400 pM | 0.00018 s⁻¹ | 480000 M⁻¹ s⁻¹
B14 | 3000 pM | 0.00073 s⁻¹ | 240000 M⁻¹ s⁻¹
B15 | 600 pM | 0.00021 s⁻¹ | 380000 M⁻¹ s⁻¹
B16 | 400 pM | 0.00018 s⁻¹ | 440000 M⁻¹ s⁻¹
B17 | 600 pM | 0.00022 s⁻¹ | 390000 M⁻¹ s⁻¹

These binders were tested against T1, recombinant human PAD4 (assay: SPR 37 C, captured antibody, PAD4 analyte, 1 mM CaCl2).
Description: Their binding to human PAD4 was measured by Surface Plasmon Resonance (SPR). SPR measurements were performed with a Biacore® 8K, 8K+, or T200 instrument (Cytiva). The association rate constants, kₒₙ, dissociation rate constants, koff, and equilibrium dissociation constants, KD, of the antibodies with PAD4 were determined from these SPR measurements.
as §1
as §2, with “antibody.” for “antibody. For those antibodies that were tested in multiple SPR experiments, the average value and standard deviation from two or three separate experiments are listed in Tables 2 and 3.”

Binder | Kd | koff | kon
B1 | 200 pM | 0.00015 s⁻¹ | 880000 M⁻¹ s⁻¹
B18 | 100 pM | 0.0003 s⁻¹ | 2.7e+06 M⁻¹ s⁻¹
B2 | 100 pM | 0.0002 s⁻¹ | 3.1e+06 M⁻¹ s⁻¹
B3 | 100 pM | 0.00017 s⁻¹ | 2.2e+06 M⁻¹ s⁻¹
B4 | 100 pM | 0.00015 s⁻¹ | 1.9e+06 M⁻¹ s⁻¹
B5 | 800 pM | 0.00026 s⁻¹ | 350000 M⁻¹ s⁻¹
B6 | 500 pM | 0.00023 s⁻¹ | 500000 M⁻¹ s⁻¹
B7 | 600 pM | 0.00025 s⁻¹ | 390000 M⁻¹ s⁻¹
B8 | 1900 pM | 0.00045 s⁻¹ | 250000 M⁻¹ s⁻¹
B9 | 300 pM | 0.00017 s⁻¹ | 640000 M⁻¹ s⁻¹
B10 | 1100 pM | 0.00029 s⁻¹ | 290000 M⁻¹ s⁻¹
B11 | 600 pM | 0.0002 s⁻¹ | 340000 M⁻¹ s⁻¹
B12 | 800 pM | 0.00025 s⁻¹ | 320000 M⁻¹ s⁻¹
B13 | 300 pM | 0.00015 s⁻¹ | 490000 M⁻¹ s⁻¹
B14 | 1700 pM | 0.00046 s⁻¹ | 270000 M⁻¹ s⁻¹
B15 | 600 pM | 0.00019 s⁻¹ | 320000 M⁻¹ s⁻¹
B16 | 500 pM | 0.00019 s⁻¹ | 390000 M⁻¹ s⁻¹
B17 | 900 pM | 0.00025 s⁻¹ | 300000 M⁻¹ s⁻¹

Each binder was assayed against extracellular matrix (ECM) proteins (assay: ECM plate ELISA (Matrigel), 1 uM antibody, A450 over wells without sample).

Binder | ECM Score (1 µM)
B1 | 1
B2 | 1
B3 | 1
B4 | 1
B5 | 5
B6 | 20
B7 | 16
B8 | 3
B9 | 18
B10 | 6
B11 | 20
B12 | 4
B13 | 19
B14 | 1
B15 | 3
B16 | 19
B17 | 4
